# Source: patent publication US20110111454
# Legend:
# [Tn]-MalE-hGH = [Tn]-MalE-hGH (UniProt P01241)
# IFNα2b[Tn] = IFNα2b[Tn] (UniProt P01563)
# Chain of IFNα2b[Tn] (P01563 whole entry, looked up): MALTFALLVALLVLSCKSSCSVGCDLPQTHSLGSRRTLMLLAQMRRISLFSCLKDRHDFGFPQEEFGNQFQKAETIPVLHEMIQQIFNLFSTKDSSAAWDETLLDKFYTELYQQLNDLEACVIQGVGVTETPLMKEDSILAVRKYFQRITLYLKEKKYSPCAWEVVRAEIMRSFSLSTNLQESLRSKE
# Chain of [Tn]-MalE-hGH (P01241 27-217): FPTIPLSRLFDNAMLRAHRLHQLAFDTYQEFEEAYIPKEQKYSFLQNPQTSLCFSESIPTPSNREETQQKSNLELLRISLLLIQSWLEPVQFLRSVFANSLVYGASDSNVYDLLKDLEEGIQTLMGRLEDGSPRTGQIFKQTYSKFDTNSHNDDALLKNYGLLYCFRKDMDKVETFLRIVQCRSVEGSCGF
Substance,PNA blot after the galactosylation reaction ([Tn]-MalE-hGH),MALDI mass of the galactosylated protein (IFNα2b[Tn]),CE-MS mass shift of the peptide (IFNα2b[Tn]-FCHASE),Specific Activity (mU/mg) on 1 mM IFNα2b[Tn]-FCHASE (IFNα2b[Tn]-FCHASE) [mU/mg],percent of IFNα2b[Tn]-FCHASE converted into IFNα2b[T-Ag]-FCHASE after 30 minutes (capillary electrophoresis) (IFNα2b[Tn]-FCHASE)
"CgtB11168 (Δ30, C-terminal MalE)",Increased staining in Lane D after PNA blotting,,,,
"CgtBOH4384 (Δ30, C-terminal MalE)",,The presence of the species at m/z 19665 is the proof that the IFNα2b[Tn] protein can be galactosylated by CJL-136,the molecular weight of IFNα2b[T-Ag]-FCHASE was 162 Dalton higher than that of IFNα2b[Tn]-FCHASE,272,91.9% of the material had been converted into IFNα2b[T-Ag]-FCHASE
"CgtBOH4384 (Δ30, N-terminal MalE)",,,,14,
